The source of these data is publication doi:10.1101/2023.02.11.528153.

In this series the target is MERS-CoV spike RBD fragment (human betacoronavirus 2c EMC/2012 …, UniProt K0BRG7 367-606). As to the kind of experiment: MST.

For the molecule ACATAGGCGTT (ssDNA) [Labeled complementary strand], the binding result is reported as “no binding”.
